{"source": "paper PMC12310653", "target": "cathepsin L", "experiment": "enzyme inhibition kinetics (Morrison equation for tight-binding inhibition); active cathepsin L (6 nM) incubated with varying concentrations of Amblyostatin-1 in 50 mM sodium acetate pH 5.5 at 37°C for 10 min; substrate Z-Phe-Arg-AMC; fluorescence read at 30°C over 15 min; residual Vmax fitted"}
{"substance": "recombinant Amblyostatin-1 (natural protein)", "values": [{"measurement": "Ki", "value": 0.697, "unit": "nM"}]}
